The nanobody polyreactivity screen of Harvey et al. (2022)

Assay: yeast display, Sf9 membrane polyspecificity reagent, FACS + sequencing; frameworks hold sequencing errors
Procedure, shortened: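 Galactose induction of a Saccharomyces cerevisiae BJ5465 synthetic nanobody display library ran 36–48 hours. The cells were then stained for 1 hour at 4 °C with 10% biotinylated, detergent-solubilized Sf9 membrane reagent, pulled down on streptavidin microbeads and FACS-sorted into low and high (top ~1%) gates on expression and reagent-binding fluorescence. Labels for polyreactivity follow the gate of origin.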

| Sequence | polyreactivity (PSR sort gate) |
| --- | --- |
| QVQLVESGGGLVQAGGSLRLSCAASGRIFSEYAMGWYRQAPGKERELVASISTSGGSTYYADSVKGRFTISRDNAKNTVYLQMNSLKPEDTAVYYCNVAYSRYPSYTYGYDHWGQGTQVTVSS | high polyreactivity |
| QVQLVESGGGLVQAGGSLRLSCAASGRIFSFNAMGCYRQATGKERELVAAISWSTGSTFYADSVKGRFTISRDYAKNTVFLQMNSLKPEDTAVYYCAREYYYRRGFFLRGYWGQGTQVTVSS | high polyreactivity |
| QVQLVESGGGLVQAGGSLRLSCAASGRIFSFNGMGWYRQAPGKERELVAAITSSGGRTYYADSVKGRFTISRDNAKNTVYLQMNSLKPEDTAVYYCAAELAWEYYWGQGTQVTVSS | low polyreactivity |
| QVQLVESGGGLVQAGGSLRLSCAASGRIFSFYAMGWYRQAPGKERELVATISDGGATTYYADSVKGRFTISRDNAKNTVYLQMNSLKPEDTAVYYCAADKRGRPGLPDYDSWGQGTQVTVSS | low polyreactivity |
| QVQLVESGGGLVQAGGSLRLSCAASGRIFSGNAMGWYRQAPGKERELVAAISGSGGSTYYADSVKGRFTISRDNAKNTVYLQMNSLKPEDTAVYYCADRYTVRRSGYWGQGTQVTVSS | high polyreactivity |
| QVQLVESGGGLVQAGGSLRLSCAASGRIFSGNAMGWYRQAPGKERELVAAISRGGSTDYADSVKGRFTISRDNAKNTVYLQMNSLKPEDTAVYYCAARVNGKRRRYDYWGQGTQVTVSS | high polyreactivity |
| QVQLVESGGGLVQAGGSLRLSCAASGRIFSGYAMGWYRKAPGKERELVAAINRGGDTNYADSVKGRFTISRDNAKNTVYLQMNSLKPEDTAVYYCAAQYSGRYRRVPKSYPDRGDYWGQGTQVTVSS | low polyreactivity |
| QVQLVESGGGLVQAGGSLRLSCAASGRIFSGYAMGWYRQAPGKERELVAAITSGGSTNYADSVKGRFTISRDNAKNTVYLQMNSLKPVDTAVYYCAKYYFQYKHDYWGQGTQVTVTS | low polyreactivity |
| QVQLVESGGGLVQAGGSLRLSCAASGRIFSGYAMGWYRQAPGKERELVAAITWNGVSTYYADSVKGRFTISRDNAKNTVYLQMNSLKPEDTAVYYCNAEVYSDPYNDHDYWGQGTQVTVSS | low polyreactivity |
| QVQLVESGGGLVQAGGSLRLSCAASGRIFSHTVMGWYRQAPGKEGELVADISSSGGSTYYADSVKWRFTISRDNAKNTVDFQKNSLKPEYTAVYYCAAAPWASGTDEYWGHGTQVTVSS | low polyreactivity |
| QVQLVESGGGLVQAGGSLRLSCAASGRIFSHYAMGWYRQAPGKERELVASITRGGTRTYADSVKGRFTISRDNAKNTVYLQMNSLKPEDSAVYYCAADGYAYYYEWSQGDLSYDHWGQVTQVTVSS | low polyreactivity |
| QVQLVESGGGLVQAGGSLRLSCAASGRIFSIYAMGWYRQAPGKERELVADITWTGGGTYYADSVKGRFTISRDNAKNTVYLQMNSLKPEDTAVYYCAADLYRKWWYDYWGQGTQVTVSS | high polyreactivity |
| QVQLVESGGGLVQAGGSLRLSCAASGRIFSIYAMGWYRQAPGKERELVASINSGDSTYYADSVKGRFTISRDNAKNTVYLQMNSLKPEDTAVYYCAATLVTVPLYRFDYWGQGTQVTVSS | low polyreactivity |
| QVQLVESGGGLVQAGGSLRLSCAASGRIFSIYGMGWYRQAPGKERELVAVISGSVGITYYADSVKGRFTISRDNAKHTVYLQMNSLKPEDTAVYYCNAKVRRRKYDYWGQGTQVTVSS | high polyreactivity |
| QVQLVESGGGLVQAGGSLRLSCAASGRIFSKYTMGWYRQAPGKERELVAAISGSGTSTYYADSVKGRFTISRDNAKNTVYLQMNSLKPEDTAVYYCNAVKSWGHPGRYYWGQGTQVTVSS | high polyreactivity |
| QVQLVESGGGLVQAGGSLRLSCAASGRIFSLNAMGWYRQAPGKERELVAGIRKRGGSTYYADSVKGRFTISRDNAKNTVYLQMNSLKPEDTAVYYCAADRFAFYGRYRGPYYYWGHGTQVTVSS | high polyreactivity |
| QVQLVESGGGLVQAGGSLRLSCAASGRIFSLNDMGWYRQAPGKERELVATIRGRGTSTYYADSVKGRFTISRDNAKNTVYLQMNSLKPEDTAVYYCAARGHGAYGYWGQGSQVTVSS | low polyreactivity |
